*1 amine or outer side, *2 acyl side, *3 side chain or, on linkers, in order; H or OH if unused. Where no end group is shown, it is not given here. Side-chain parts run from the residue outwards. [ ]: non-standard residue; d: D form. The star is where a group is joined. C20 diacid = O=C(O)CCCCCCCCCCCCCCCCCCC(=O)*; C18 diacid = O=C(O)CCCCCCCCCCCCCCCCC(=O)*; γGlu = O=C(O)[C@H](CCC(=O)[*:2])N[*:1]; Trx = NC[C@H]1CC[C@H](C(=O)O)CC1; Nle = CCCC[C@H](N)C(=O)O; AEEA = NCCOCCOCC(=O)O; Aib = CC(C)(N)C(=O)O
T1: human GIP receptor (human, UniProt P48546 22-466)
T1 sequence (looked up): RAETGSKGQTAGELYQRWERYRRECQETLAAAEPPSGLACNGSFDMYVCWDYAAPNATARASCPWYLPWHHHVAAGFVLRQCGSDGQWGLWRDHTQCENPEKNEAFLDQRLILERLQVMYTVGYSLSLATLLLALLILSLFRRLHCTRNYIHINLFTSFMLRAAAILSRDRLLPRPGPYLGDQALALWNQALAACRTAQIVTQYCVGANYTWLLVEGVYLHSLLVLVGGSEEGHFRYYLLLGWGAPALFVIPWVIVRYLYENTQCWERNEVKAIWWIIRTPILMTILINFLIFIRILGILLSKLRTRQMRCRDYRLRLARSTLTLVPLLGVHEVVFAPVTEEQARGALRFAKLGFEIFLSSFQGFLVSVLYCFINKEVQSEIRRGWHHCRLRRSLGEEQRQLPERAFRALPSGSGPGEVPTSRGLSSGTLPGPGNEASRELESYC


Legend:
Test in all cases: cell-based or functional assay
human glucagon receptor = human glucagon receptor (human, UniProt P47871 26-477)
Sequence of human glucagon receptor (P47871 26-477): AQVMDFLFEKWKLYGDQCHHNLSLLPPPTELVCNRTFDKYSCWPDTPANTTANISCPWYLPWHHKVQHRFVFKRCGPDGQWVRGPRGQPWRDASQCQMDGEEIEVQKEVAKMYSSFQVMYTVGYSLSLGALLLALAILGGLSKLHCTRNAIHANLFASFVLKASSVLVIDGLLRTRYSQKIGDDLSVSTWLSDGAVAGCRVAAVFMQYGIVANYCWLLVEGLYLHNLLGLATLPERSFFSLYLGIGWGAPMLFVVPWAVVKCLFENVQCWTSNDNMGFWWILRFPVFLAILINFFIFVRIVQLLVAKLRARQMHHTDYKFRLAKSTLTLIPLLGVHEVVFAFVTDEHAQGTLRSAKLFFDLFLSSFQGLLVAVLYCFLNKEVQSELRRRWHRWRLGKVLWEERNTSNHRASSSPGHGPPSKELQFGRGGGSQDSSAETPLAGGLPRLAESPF

human GLP-1 receptor = human GLP-1 receptor (human, UniProt P43220 24-463)
human GIP receptor = target: T1, human GIP receptor

Molecule	EC50, hGcg-R CRE Luc, 0.2% HSA (human glucagon receptor)	EC50, hGLP-1-R CRE Luc, 0.2% HSA (human GLP-1 receptor)	EC50, hGIP-R CRE Luc, 0.2% HSA (human GIP receptor)	EC50, hGcg-R CRE Luc, 1% HSA (*) (human glucagon receptor)	EC50, hGLP-1-R CRE Luc, 1% HSA (*) (human GLP-1 receptor)
hGIP(1-42) (from UniProt P09681 52-93) (ligand)	> 100 nM	> 100 nM	–	–	–
Y[Aib]EGTFISDYSIA[Nle]DKIHQQDFVK([γGlu-γGlu-γGlu-C18 diacid])WLLAQKGKEEDWKHNITQ	> 100 nM	> 100 nM	0.009 nM	–	–
YAEGTFISDYSIAMDKIHQQDFVNWLLAQKG (ligand) [hGIP(1-31)]	–	–	0.00224 nM	–	–
Ac-[dY][Aib]EGTFISDYSIA[Nle]DKIRQQDFVK([γGlu-γGlu-γGlu-C18 diacid])WLLAQKP-NH2	–	> 100 nM	0.0212 nM	–	–
Y[Aib]EGTFISDYSIA[Nle]DKIRQQDFVK([γGlu-γGlu-γGlu-Trx-C20 diacid])WLLAQKGKEEDWKHNITQ	–	–	0.022 nM	–	–
Y[Aib]EGTFISDYSIA[Nle]DKIRQQDFVK([γGlu-γGlu-γGlu-C18 diacid])WLLAQKGKEEDWKHNITQ	> 100 nM	> 100 nM	0.00447 nM	–	–
Y[Aib]EGTFISDYSIA[Nle]DKIHQQDFVK([γGlu-γGlu-γGlu-C18 diacid])WLLAQKG	–	–	0.0499 nM	> 100 nM	> 100 nM
Ac-[dY][Aib]EGTFISDYSIA[Nle]DKIHQQDFVK([γGlu-γGlu-γGlu-Trx-C20 diacid])WLLAQKP-NH2	–	–	0.0384 nM	–	–
Y[Aib]EGTFISDYSIA[Nle]DKIHQQDFVK([γGlu-γGlu-γGlu-C18 diacid])WLLAQKGKENDWKHNITQ	–	–	0.0213 nM	> 100 nM	> 100 nM
Ac-[dY]AEGTFISDYSIA[Nle]DKIHQ[Aib]DFVK([γGlu-γGlu-γGlu-Trx-C20 diacid])WLLAQKG	–	–	0.153 nM	–	–
Ac-[dY][Aib]EGTFISDYSIA[Nle]DKIRQQDFVK([γGlu-γGlu-γGlu-γGlu-Trx-C20 diacid])WLLAQKP-NH2	–	–	0.0261 nM	> 100 nM	> 10 nM
Y[Aib]EGTFISDYSIA[Nle]DKIRQQDFVK([AEEA-AEEA-γGlu-C18 diacid])WLLAQKGKEEDWKHNITQ	> 100 nM	> 100 nM	0.00412 nM	–	–
Y[Aib]EGTFISDYSIA[Nle]DKIRQQDFVK([γGlu-γGlu-γGlu-C18 diacid])WLLAQKGKENDWKHNITQ	–	–	0.0201 nM	> 100 nM	> 100 nM
HAEGTFTSDVSSYLEGQAAKEFIAWLVKGRG (ligand) [hGLP-1(7-37)]	–	–	> 100 nM	–	–
Y[Aib]EGTFISDYSIA[Nle]DKIRQQDFVK([γGlu-γGlu-γGlu-Trx-C20 diacid])WLLAQKP-NH2	–	–	0.0615 nM	–	–
Y[Aib]EGTFISDYSIA[Nle]DKIHQQDFVK([AEEA-AEEA-γGlu-C18 diacid])WLLAQKGKEDDWKHNITQ	> 100 nM	> 100 nM	0.00597 nM	–	–
Y[Aib]EGTFISDYSIA[Nle]DKIHQQDFVK([AEEA-AEEA-γGlu-C18 diacid])WLLAQKGKEEDWKHNITQ	> 100 nM	> 100 nM	0.00545 nM	–	–
Y[Aib]EGTFISDYSIA[Nle]DKIHQQDFVK([γGlu-γGlu-γGlu-Trx-C20 diacid])WLLAQKP-NH2	–	–	0.0675 nM	–	–
Ac-[dY]AEGTFISDYSIA[Nle]DKIRQQDFVK([γGlu-γGlu-γGlu-Trx-C20 diacid])WLLAQKP-NH2	–	–	0.0762 nM	–	–
Y[Aib]EGTFISDYSIA[Nle]DKIHQQDFVK([γGlu-γGlu-γGlu-C18 diacid])WLLAQKGKEDDWKHNITQ	> 100 nM	> 100 nM	0.0059 nM	–	–
Y[Aib]EGTFISDYSIA[Nle]DKIRQQDFVK([AEEA-AEEA-γGlu-Trx-C20 diacid])WLLAQKGKEEDWKHNITQ	–	–	0.014 nM	–	–
Ac-[dY]AEGTFISDYSIA[Nle]DKIHQEDFVK([γGlu-γGlu-γGlu-Trx-C20 diacid])WLLAQKG	–	–	0.547 nM	–	–
Ac-[dY]AEGTFISDYSIA[Nle]DKIHQQDFVK([γGlu-γGlu-γGlu-Trx-C20 diacid])WLLAQKP-NH2	–	–	0.0712 nM	–	–
Y[Aib]EGTFISDYSIALDKIHQQDFVK([AEEA-AEEA-γGlu-C18 diacid])WLLAQKGKKNDWKHNITQ	–	–	0.056 nM	> 100 nM	> 100 nM
